The data set concerns the molecule itself. As to the kind of experiment: AUC.

B1: C9ORF72-SMCR8-WDR41 complex (complex)
chain 1: MSTLCPPPSPAVAKTEIALSGKSPLLAATFAYWDNILGPRVRHIWAPKTEQVLLSDGEITFLANHTLNGEILRNAESGAIDVKFFVLSEKGVIIVSLIFDGNWNGDRSTYGLSIILPQTELSFYLPLHRVCVDRLTHIIRKGRIWMHKERQENVQKIILEGTERMEDQGQSIIPMLTGEVIPVMELLSSMKSHSVPEEIDIADTVLNDDDIGDSCHEGFLLNAISSHLQTCGCSVVVGSSAEKVNKIVRTLCLFLTPAERKCSRLCEAESSFKYESGLFVQGLLKDSTGSFVLPFRQVMYAPYPTTHIDVDVNTVKQMPPCHEHIYNQRRYMRSELTAFWRATSEEDMAQDTIIYTDESFTPDLNIFQDVLHRDTLVKAFLDQVFQLKPGLSLRSTFLAQFLLVLHRKALTLIKYIEDDTQKGKKPFKSLRNLKIDLDLTAEGDLNIIMALAEKIKPGLHSFIFGRPFYTSVQERDVLMTF
chain 2: MISAPDVVAFTKEEEYEEEPYNEPALPEEYSVPLFPFASQGANPWSKLSGAKFSRDFILISEFSEQVGPQPLLTIPNDTKVFGTFDLNYFSLRIMSVDYQASFVGHPPGSAYPKLNFVEDSKVVLGDSKEGAFAYVHHLTLYDLEARGFVRPFCMAYISADQHKIMQQFQELSAEFSRASECLKTGNRKAFAGELEKKLKDLDYTRTVLHTETEIQKKANDKGFYSSQAIEKANELASVEKSIIEHQDLLKQIRSYPHRKLKGHDLCPGEMEHIQDQASQASTTSNPDESADTDLYTCRPAYTPKLIKAKSTKCFDKKLKTLEELCDTEYFTQTLAQLSHIEHMFRGDLCYLLTSQIDRALLKQQHITNFLFEDFVEVDDRMVEKQESIPSKPSQDRPPSSSLEECPIPKVLISVGSYKSSVESVLIKMEQELGDEEYKEVEVTELSSFDPQENLDYLDMDMKGSISSGESIEVLGTEKSTSVLSKSDSQASLTVPLSPQVVRSKAVSHRTISEDSIEVLSTCPSEALIPDDFKASYPSAINEEESYPDGNEGAIRFQASISPPELGETEEGSIENTPSQIDSSCCIGKESDGQLVLPSTPAHTHSDEDGVVSSPPQRHRQKDQGFRVDFSVENANPSSRDNSCEGFPAYELDPSHLLASRDISKTSLDNYSDTTSYVSSVASTSSDRIPSAYPAGLSSDRHKKRAGQNALKFIRQYPFAHPAIYSLLSGRTLVVLGEDEAIVRKLVTALAIFVPSYGCYAKPVKHWASSPLHIMDFQKWKLIGLQRVASPAGAGTLHALSRYSRYTSILDLDNKTLRCPLYRGTLVPRLADHRTQIKRGSTYYLHVQSMLTQLCSKAFLYTFCHHLHLPTHDKETEELVASRQMSFLKLTLGLVNEDVRVVQYLAELLKLHYMQESPGTSHPMLRFDYVPSFLYKI
chain 3: MLRWLIGGGREPQGLAEKSPLQTIGEEQTQNPYTELLVLKAHHDIVRFLVQLDDYRFASAGDDGIVVVWNAQTGEKLLELNGHTQKITAIITFPSLESCEEKNQLILTASADRTVIVWDGDTTRQVQRISCFQSTVKCLTVLQRLDVWLSGGNDLCVWNRKLDLLCKTSHLSDTGISALVEIPKNCVVAAVGKELIIFRLVAPTEGSLEWDILEVKRLLDHQDNILSLINVNDLSFVTGSHVGELIIWDALDWTMQAYERNFWDPSPQLDTQQEIKLCQKSNDISIHHFTCDEENVFAAVGRGLYVYSLQMKRVIACQKTAHDSNVLHVARLPNRQLISCSEDGSVRIWELREKQQLAAEPVPTGFFNMWGFGRVSKQASQPVKKQQENATSCSLELIGDLIGHSSSVEMFLYFEDHGLVTCSADHLIILWKNGERESGLRSLRLFQKLEENGDLYLAV
As usually defined, the stoichiometry N is the number of molecules, sites or subunits per partner or assembly. As for B1, the “stoichiometry N” value worked out at 2.

The values above are taken from paper doi:10.1101/2020.04.16.045708 (bioRxiv, 2020).
